According to US12606635B2, “Glypican-2-binding moieties, chimeric antigen receptors and uses thereof” (Nanjing Legend Biotech Co., Ltd., priority 2020, dated 2026):

Tests used:
[1] = tested on: GPC2 negative human epidermoid carcinoma cell line A-431; experiment: In vitro cytotoxicity assay (LDH), A-431; type: cell-based; conditions: FIG. 7G
Method: The pre-activated T cells were transduced with lentivirus stock in the presence of […] polybrene and 300 IU/mL IL-2. T cells and lentivirus were centrifuged at 1000 g, 32° C. for 1 h and placed in humidified cell culture incubator for transgene expression under suitable conditions. On day 5 or day 7 or day 10 post-transduction, transduced T cells were harvested and co-incubated with tumor cells at an effector (CAR T) to target cell ratio of 10:1 or 5:1 or 2:1 or 1:1 or 0.2:1 for 20 hours. Target cells were human neuroblastoma cell line SH-SY5Y (ATCC, #CRL-2266), human neuroblastoma cell line IMR-32 cells (ATCC, #CCL-127), or human epidermoid carcinoma cell line A-431 (ATCC, #CRL-1555). To assay the cytotoxicity of CAR T cells on tumor cells, the Cytotoxicity Detection Kit (LDH) (Roche, #11644793001) assay reagents were prepared according to manufacturer's protocol. Reaction mix was added to the cell-free supernatant of each sample to detect the LDH released from cells. Optical densities at OD492 nm and OD650 nm were measured by PHERStar Microplate Reader. Baseline LDH released from the target cell in the absence of effector cells and effector cell in the absence of target cells were subtracted from the total LDH amount. The target maximum release was obtained by adding Triton-X100 at a final concentration of 1% to target cells in the absence of effector cells at the time when the cytotoxicity assays initiated. […] The specific cytotoxicity was calculated by the formula: % Target cell lysis=100*[(OD CAR T cell+Target cell)−(OD CAR T cell)−(OD Target cell)+(OD Buffer background)]/(OD Target Maximum release−OD Target Minimum release).
On day 5 or day 8 or day 10 post-transduction, transduced T cells were harvested and co-incubated with tumor cells at an effector (CAR T) to target cell ratio of 10:1 or 1:1 or 0.2:1 for 20 hours. To assay the cytotoxicity of CAR T cells on tumor cells, the Cytotoxicity Detection Kit (LDH) (Roche, #11644793001) was added to the culture supernatant and the specific cytotoxicity for each CAR T cell construct was measured as described in Example 6.

[2] = biological target: T1, recombinant human GPC2-His protein (Homo sapiens, UniProt Q8N158); experiment: SPR (Biacore T200) affinity of anti-GPC2 VHH-hIgG1Fc; conditions: 1:1 binding model
T1 construct: His
T1 sequence (Q8N158 24-554): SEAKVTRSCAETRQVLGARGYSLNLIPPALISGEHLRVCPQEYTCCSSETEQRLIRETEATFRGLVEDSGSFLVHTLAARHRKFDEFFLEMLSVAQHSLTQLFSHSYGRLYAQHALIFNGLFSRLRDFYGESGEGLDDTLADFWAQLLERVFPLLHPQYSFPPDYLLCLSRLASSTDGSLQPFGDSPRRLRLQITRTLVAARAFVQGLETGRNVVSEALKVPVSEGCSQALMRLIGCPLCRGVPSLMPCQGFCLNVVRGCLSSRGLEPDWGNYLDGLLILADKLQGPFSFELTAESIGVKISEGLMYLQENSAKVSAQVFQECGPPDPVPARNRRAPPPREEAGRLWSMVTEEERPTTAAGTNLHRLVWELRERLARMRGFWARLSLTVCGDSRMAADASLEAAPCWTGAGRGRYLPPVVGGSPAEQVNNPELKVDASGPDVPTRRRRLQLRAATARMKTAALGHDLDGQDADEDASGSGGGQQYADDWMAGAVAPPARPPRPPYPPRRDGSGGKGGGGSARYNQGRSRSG
Method: Each of the exemplary anti-GPC2 VHH sequences was cloned into a vector comprising a human IgG1Fc fragment (hlgG1Fc) sequence to facilitate recombinant expression of anti-GPC2 VHH-hlgG1Fc. Recombinant proteins were obtained and purified for SPR assays. The affinity of each anti-GPC2 VHH-hIgG1Fc for GPC2 was determined by SPR using a BIACORE® T200 analytical system (GE Healthcare). Briefly, recombinant human GPC2-His protein was covalently coupled to a CM5(s) sensor chip using an amine coupling kit. Exemplary VHH-hIgG1Fc proteins were serially diluted in running buffer (10 mM HEPES, 150 mM NaCl, 3 mM EDTA, 0.05% Tween-20, pH 7.4) and injected over the chip cell at a flowrate of 100 μL/min for 100 seconds followed by buffer-only injection for 300 seconds to allow for antibody dissociation. The dissociation […] (KD) were determined using the BIACORE® T200 evaluation software version 3.0 (Langmuir binding, local fit, 1:1 binding model).

[3] = biological target: T2, recombinant human GPC2 protein (Homo sapiens, UniProt Q8N158); experiment: ELISA-based specific binding assay, human GPC2; conditions: FIG. 3A-3G
T2 construct: His; purchased RD System (R&D Systems) 2304-GP
T2 sequence (Q8N158 24-554): T1 sequence (Q8N158 24-554)
Method: (§1) To evaluate the specificity of humanized anti-GPC2 VHH5 to recombinant human GPC2 protein, an ELISA-based binding assay was conducted to determine the differential target proteins binding of anti-GPC2 VHH5. Briefly, microplates were coated with 2 μg/mL recombinant human GPC1-His (RD System, Cat #4519-GP), GPC2-His (RD System, Cat #2304-GP), GPC3-His (ACRO, Cat #GP3-H5223), GPC4-Fc (RD System, Cat #9195-GP), GPC5-His (RD System, Cat #2607-G5/CF), GPC6-His (RD System, Cat #2845-GP) or recombinant mouse GPC2-His (RD System, Cat #2355-GP) proteins. Recombinant human protein coated plates were blocked with skim milk. Serially diluted humanized VHH-hIgG1Fc recombinant antibodies were added to each well of the plates and incubated at 4° C. for 1.5 h. Samples were further labelled with HRP-conjugated goat anti human IgG (H+L) secondary antibody (Genescript, Cat #A00166-1) and signal was developed with 3,3′,5,5′-Tetramethylbenzidine (TMB) substrate according to manufacturer's instruction. For the GPC4, VHH-His recombinant antibodies and anti-His tag secondary antibody (Genescript, Cat #A00612) were added to the GPC4-Fc coated plates instead. Optic density at 450 nm was measured by plate reader.

[4] = tested on: other recombinant human and murine GPC family proteins (human GPC1, GPC3, GPC4, GPC5, GPC6, mouse GPC2); experiment: ELISA-based specific binding assay, cross-reactivity; conditions: FIG. 3A-3G
Method: as §1

[5] = tested on: neuroblastoma SH-SY5Y xenograft; type: in vivo, NCG mice
Method: A single dose of untransduced T cells (10×10^6) or CAR T cells (5×10^6) was administered intravenously to tumor engrafted mice 9 days after tumor inoculation (FIG. 9A). […] At the end of obversion, 100% of monovalent CAR T cells (CAS70950VH6-BBz, CAS72669VH6-BBz) and 80% of multi-valent CAR T cells (CAS70950VH6-AS71529VH6-BBz) treated mice were alive (FIG. 9A). At day 42 post treatment, 2/5 mice (40%) treated with CAS72669VH6-BBz expressing CAR T cells were tumor-free and 3/5 mice (60%) treated with CAS70950VH6-AS71529VH6-BBz expressing CAR T cells were tumor-free without recurrence. […] The data highlighted the superiority of VHH-based CAR T cells in tumor regression and protection of mice from disease progression.
Moreover, the expansion and persistence of CAR T cells in vivo are also considered as critical predictors of durable clinical tumor regression in patients with cancer. […] Average 5.00±6.42% of CAR T cells were found in the peripheral blood of NCG mice treated with 5×10^6 CAS70950VH6-AS71529VH6-BBz CAR T cells, whereas less than 1% CAR T cells were detected in CAS70950VH6-BBz, CAS72669VH6-BBz and CAS71529VH6-BBz expressing CAR T groups. Expansion of CAR T cells in the CAS70950VH6-AS71529VH6-BBz group was inversely correlated with tumor size over time.

[6] = 5×10^6 CAR T cells i.v., FIG. 9A

B1: CAS78117VH4-BBz: humanized VHH anti-GPC2 CAR (4-1BB, CD3ζ), SEQ ID NO: 227; tested as CAR T cells (protein)
chain: MALPVTALLLPLALLLHAARPEVQLVESGGGLVQPGGSLRLSCIVSRYTYATYSMAWFRQAPGKGLEGVSGLDSVGATGYAESVKGRFTISRDNSKNTLYLQMNSLRAEDTAVYYCVVDPASAKVTYGSWSTPSYAYWGQGTLVTVSSTTTPAPRPPTPAPTIASQPLSLRPEACRPAAGGAVHTRGLDFACDIYIWAPLAGTCGVLLLSLVITLYCKRGRKKLLYIFKQPFMRPVQTTQEEDGCSCRFPEEEEGGCELRVKFSRSADAPAYKQGQNQLYNELNLGRREEYDVLDKRRGRDPEMGGKPRRKNPQEGLYNELQKDKMAEAYSEIGMKGERRRGKGHDGLYQGLSTATKDTYDALHMQALPPR
modifications: expressed in CAR T cells; CAS78117VH4-BBz
cytotoxicity against GPC2 negative A-431 [1]: no cytotoxicity

B2: AS70950VH6-hIgG1Fc: AS70950VH6 VHH fused to human IgG1Fc fragment (protein)
chain: EVQLVESGGGLVQPGGSLRLSCAISEFTYKNTCVGWFRQAPGKGREGVAAIDSDGNTNYVDSVKGRFTISQDNSKNTVYLQMNSLRAEDTAMYYCAAGAYCGRLLLWIGNYAYWGQGTLVTVSS
modifications: left off: a dimerising Fc or GST
notes: AS70950VH6 VHH fused to human IgG1Fc fragment
ka [2]: 390000 M⁻¹ s⁻¹ | kd [2]: 0.00011 s⁻¹ | binding to recombinant human GPC2 protein [3]: high affinity | cross-reactivity with other recombinant human and murine GPC family proteins [4]: no cross-reactivity

B3: AS79236VH6-hIgG1Fc: AS79236VH6 VHH fused to human IgG1Fc fragment (protein)
chain: EVQLVESGGGLVQPGGSLRLSCAVSGYTYSSYCMAWFRQAPGKGLEGVASIDAGGRTTYVDSVKGRFTISKDNAKNSLYLQMNSLRAEDTAMYYCAVDVRTRCGGTWDGEAVYFPYWGQGTLVTVSS
modifications: left off: a dimerising Fc or GST
notes: AS79236VH6 VHH fused to human IgG1Fc fragment
ka [2]: 530000 M⁻¹ s⁻¹ | kd [2]: 0.00019 s⁻¹ | binding to recombinant human GPC2 protein [3]: high affinity | cross-reactivity with other recombinant human and murine GPC family proteins [4]: no cross-reactivity

B4: CAS79236VH6-BBz: humanized VHH anti-GPC2 CAR (4-1BB, CD3ζ), SEQ ID NO: 233; tested as CAR T cells (protein)
chain: MALPVTALLLPLALLLHAARPEVQLVESGGGLVQPGGSLRLSCAVSGYTYSSYCMAWFRQAPGKGLEGVASIDAGGRTTYVDSVKGRFTISKDNAKNSLYLQMNSLRAEDTAMYYCAVDVRTRCGGTWDGEAVYFPYWGQGTLVTVSSTTTPAPRPPTPAPTIASQPLSLRPEACRPAAGGAVHTRGLDFACDIYIWAPLAGTCGVLLLSLVITLYCKRGRKKLLYIFKQPFMRPVQTTQEEDGCSCRFPEEEEGGCELRVKFSRSADAPAYKQGQNQLYNELNLGRREEYDVLDKRRGRDPEMGGKPRRKNPQEGLYNELQKDKMAEAYSEIGMKGERRRGKGHDGLYQGLSTATKDTYDALHMQALPPR
modifications: expressed in CAR T cells; CAS79236VH6-BBz
cytotoxicity against GPC2 negative A-431 [1]: no cytotoxicity

B5: CAS72669VH6-BBz: humanized VHH anti-GPC2 CAR (4-1BB, CD3ζ), SEQ ID NO: 226; tested as CAR T cells (protein)
chain: MALPVTALLLPLALLLHAARPQVQLVESGGGVVQPGGSLRLSCAASRFTYSSYCMGWIRQAPGKGREGVAIFYTGGGRTYYADSVKGRFTISQDNSKNTLYLQMNSLRAEDTAVYYCVAGFYCSGGYWEGDFGYWGQGTLVTVSSTTTPAPRPPTPAPTIASQPLSLRPEACRPAAGGAVHTRGLDFACDIYIWAPLAGTCGVLLLSLVITLYCKRGRKKLLYIFKQPFMRPVQTTQEEDGCSCRFPEEEEGGCELRVKFSRSADAPAYKQGQNQLYNELNLGRREEYDVLDKRRGRDPEMGGKPRRKNPQEGLYNELQKDKMAEAYSEIGMKGERRRGKGHDGLYQGLSTATKDTYDALHMQALPPR
modifications: expressed in CAR T cells; CAS72669VH6-BBz
cytotoxicity against GPC2 negative A-431 [1]: no cytotoxicity | treated mice alive at the end of observation [5, 6]: 100% | tumor regression compared with CAS71529VH6-BBz [5, 6]: more pronounced | tumor-free mice (number of mice) ([5]; day 42 post treatment): 2/5 | tumor-free mice (percent) ([5]; day 42 post treatment): 40% | tumor burden compared with untransduced T cell-treated group ([5]; fourteen days after treatment, 5×10^6 CAR T cells i.v., FIG. 9A): reduced tumor burden | percentage of CAR T cells in peripheral blood ([5]; mouse, in vivo): less than 1%
